Results published in the DeepSol protein solubility set.

Experiment: soluble on expression in E. coli; label from the status in PepcDB or PDB records

Sequence: PIEGEKVDLRIMSTTDLHTNLVNYDYYQDKESQKIGLAKTAVLIEEAKKENPNTVLVDNGDVIQGTPLGTYKAIVKPVAENEEHPMYQAMNALGYDASTLGNHEFNYGLDYLKKIIATANLPILNANVLDFKTHQPVFKTYDIITKTFKDSTGRAVALNIGITGIVPPQILNWDKANLEGKVIVKDSVKAIEEIVPTMRAKGADVILVLSHSGIGDDRYEEGEENVGYQIASIKGVDAVVTGHSHAEFPSGNGTGFYEKYTGVDGINGKINGTPVTMAGKYGDHLGIIDLGLSYTNGKWQVSESSAKIRKIDMNSTTADERIIALAKEAHDGTINYVRQ
- soluble on expression in E. coli: not soluble

Sequence: KPPIPPQVEEEYYTIAEFQTTIPDGISFQAGLKVEVIEKNLSGWWYIQIEDKEGWAPATFIDKYKKTSNASRPNFLAPLPHEVTQLRLGEAAALENNTGSEATGPSRPLPDAPHGVMDSGLPWSKDWKGSKDVLRKASSDMSASAGYEEISDPDMEEKPSLPPRKESIIKSEGELLERERERQRTEQLRGPTPKPPGVILPMMPAKHIPPARDSRRPEPKPDKSRLFQLKNDMGLECGHKVLAKEVKKPNLRPISKSKTDLPEEKPDATPQNPFLKSRPQVRPKPAPSPKTEPPQGEDQVDICNLRSKLRPAKSQDKSLLDGEGPQAVGGQDVAFSRSFLPGEGPGRAQDRTGKQDGLSPKEISCRAPPRPAKTTDPVSKSVPVPLQEAPQQRPVVPPRRPPPPKKTSSSSRPLPEVRGPQCEGHESRAAPTPGRALLVPPKAKPFLSNSLGGQDDTRGKGSLGPWGTGKIGENREKAAAASVPNADGLKDSLYVAVADFEGDKDTSSFQEGTVFEVREKNSSGWWFCQVLSGAPSWEGWIPSNYLRKKP
- soluble on expression in E. coli: soluble

Sequence: MARNAEKAMTALARFRQAQLEEGKVKERRPFLASECTELPKAEKWRRQIIGEISKKVAQIQNAGLGEFRIRDLNDEINKLLREKGHWEVRIKELGGPDYGKVGPKMLDHEGKEVPGNRGYKYFGAAKDLPGVRELFEKEPLPPPRKTRAELMKAIDFEYYGYLDEDDGVIVPLEQEYEKKLRAELVEKWKAEREARLARGEKEEEEEEEEEINIYAVTEEESDEEGSQEKGGDDSQQKFIAHVPVPSQQEIEEALVRRKKMELLQKYASETLQAQSEEARRLLGY
- soluble on expression in E. coli: soluble

Sequence: MGSDKIHHHHHHMITTEAWVLYAGPEQTKKHAPVPGELRRETFQFAGLEDDEALVEPLYGSWEANLDHALSRNPVDICRQRGEEKIVLGNGALVRVVDRGRGAKHPEIGEICMVMPFGKRDQYGFAELVYAYDAPGTIGVMARRTKIRADNLVPVPKGSRHSLLQWATYGRYFTAWDNWKVASKCWRAQLPDVDPADYLVFGWGGGTTLAELQLAKREGFRVAMTASGDKRLADIEKLGITPVDRRRFPHLAYDEERYRSDPEYQAHYRASESAFAEIIGELSGGRGVAIFLDNLGGALYRATMRVIGRTGIVATVGWKTGMRLWNLRATECINRRLHIHTHAWRYDDSEAIRDFQESSDWVGPEPTEIYGFDDVPALASDYVNGKIKTYFPLYQVNPV
- soluble on expression in E. coli: not soluble

Sequence: GVKCEPIEELTISVPEEYSSKMIDMVTRRKGDLVSMETQGDRVNIEFDMPSRGIIGLRTNVLTASAGEAIMAHRFKCYQPYKGEIERRSNGSMIAMESGTAFAYAIDKLQDRGKFFIYPQDEVYAGQV
- soluble on expression in E. coli: not soluble

Sequence: MNQVEMTEFPVGKPQEALYGVASTPDGALWFTLAKGNAIGRLSPDGAVSRFPLPHTDGQPTTITCGPDGRPWFTLSSANAIGRLAPDGALRMFELPRPASRPFGIAGGHDGCLWFAEMAGDRIGRITIDGDIEEYDLPVKGGYPSCMAAGRDGLMWFTLNQAGAVGSISATAAPRIFPLGAADAAPVGIASDAQGALWIAQAGNGAIVRFDAGGRITEFPLHSRAARPHAIAADAAGNLWFTEWGANRIGRISEAGDLAGYELAAPGSEPHGIAIDPHGCVWAALETGRLVRLQASPRDLEHHHHHH
- soluble on expression in E. coli: soluble

Sequence: KATRDSSTLNVDTYVNWIKRVFRPQRLRLLERKELVVEEADYEYALGEIANVRSDAQQMLGSRIMSRPLPFIWLFGGDLSSQKELSVRVDTMVEYLHNTTDNLIFAKLMDVPPLPTTLSHWLPKDKRS
- soluble on expression in E. coli: not soluble

Sequence: MPLIFAPFAADLARRAAALMPIDVLEIAAGTGAVTREMIPRLLPAAHYVVTDLNQPMLDFAAAQQAPDNRIKWRQADAQLLPFENAVFDLVFCQFGAMFFNDRLSAYREAKRVLKPGGHYLFNVWDRIEENHFADDVTNALAGLFPDDPPRFMARTPHGYHDTVLIRRELENAGFSRVTVETVAAQSRAPSPRIPAVAYCQGTVLRTEIEARAPGKLNAATDCAAAAIEARHGKGEVAAKIKAHVILAAV
- soluble on expression in E. coli: not soluble

Sequence: MPYEADDYLSRHFQTSGTDLARKVDELAALAAPGDSPNLALYREMLFTVTRMAQADRNRWDAKIMLQTLREMEHAFSVLEQFKRRRKVTVFGSARTPVEHPVYALARKLGEELARYDLMVITGAGGGIMAAAHEGAGLENSLGFNITLPFEQHANHTVDGSGNLLSFHFFFLRKLFFVKEADALVLCPGGFGTLDEALEVLTLVQTGKSPLVPIVLLDQPGGRYWEHALEFMQEQLLENHYILPADMRLMRLVHSAEDAVKEIAQFYRNFHSSRWLKGTFVIRLNHALNEAALAHLHEHFASLCLSGGFQQQAYSEQEQDEPEFRNLTRLAFVFNGRDQGRLRELLDYINLPENWD
- soluble on expression in E. coli: not soluble

Sequence: SEEFLQRAKSKLNRSKRLEKVHVVIGPKSCDLDSLISTFTYAYFLDKVSPPGVLCLPVLNIPRTEFNYFTETRFILEELNISESFHIFRDEINLHQLNDEGKLSITLVGSSVLASEDKTLESAVVKVINPVEQSDANVEFRESSSSLVLKEILQEAPELITEQLAHRLRGSILFKWMTMESEKISEKQEEILSILEEKFPNLPPREDIINVLQETQFSAQGLSIEQTMLKDLKELSDGEIKVAISTVSMNLEVRVGMLF
- soluble on expression in E. coli: soluble

Sequence: MLFEGLPCLAVWCKNRLSAVLPVGGLNVSENLLEIETHPFDPVLPPKAAVMMMGTFPPKEDKRAMQFHYPNFQNDMWRVYGLVFFNDAAHFQRLSEKAFDAEKIKAFLHERGIASCPTVLKAVRQHGNASDKFLKVVETVDLAAVLAKIPECRHICTTGGKATEILLDIQGGGIKMPKTGETVPFPFAGRDLTLTRLPSTSRAYPLSLAKKAAAYRAFFEMAGLCEKQLLEHHHHHH
- soluble on expression in E. coli: not soluble

Sequence: MSEDRSSNGQKSWLGKLTQAFVHEPKNRQELLELLREAHQNKLLDSEALAIVEGAIQVADLQVRDIMVPRSQMISIKATQTPREFLPAVIDAAHSRYPVIGESHDDVLGVLLAKDLLPLILKADGDSDDVKKLLRPATFVPESKRLNVLLREFRANHNHMAIVIDEYGGVAGLVTIEDVLEQIVGDIEDEHDVEEDSYIKPLPSGDFLVKALTPVENFNEFFDSAFSDDEFDTVGGLVMNAFGHLPKRNEITEIGAYRFRILSADSRRIHLLRVTPISRP
- soluble on expression in E. coli: not soluble

Sequence: SKLNQNTMLVGKKVVLVPYTSEHVPRYHEWMKSEELRHLTASEQLTLQQEYEMQCSWCEDEDKCTFIVLDAEKWQAQPRPPEESCMVGDVNLFLTDLEDPTLGEIEVMIAEPSYRRQGLGTEASLLIMSYGVTKLGLTKFEAKIGQENEPSIRMFQKLHFKQVAMSNVFQEVTLRLAVSEPERKWILEQTSHMEERPYRTRKAEPVTATLSEQKSWNCPLPRPDGCMGDTSAVSSVCARLS
- soluble on expression in E. coli: soluble

Sequence: MGSDKIHHHHHHMSVLVVGMSHRSAPVALLEKLSMDDGVRTNTVSDLVARPSLAEAMIVSTCNRLEVYAMTSSFHTGVNDVVEVLHDMSGVDMEELRGYLYVRYADAAAEHMMEVTSGLDSMVVGEQQIIGQVRTAYHSATEAGTVGPALHGLVQASLHTGKRVHTETDIDDAGASMVSFACDEALAQMSATNFAGCRALVLGAGAMASLAATHLGRLGIEHITVANRTFERAQRLADHAVEAGVAASAIEFERRMDVLCDVDVVVSATGANTFTIEAANIPAAHGDLMMIDLSLPRDISDDVAEVPGVHLVNIEKLRDVASSGEAKDHAAQRIVAEELEAYTSAQRIRDVAPAVAALRRHASSLIDSELARLSTRVPSMDEDDFSEVQRTVRRVVDKLLHQPTVRVKELAAQSGTVSYDTAIQELFGLAVEATPVAVNVDELPERINKR
- soluble on expression in E. coli: not soluble

Sequence: MRARSSLSAGQREELVALFEQGYSYWAAAHHVGVGVYPVRALFRRFLLHGKLCLVEKPSKQQYSFEIKKEVVQRHLAGESKMDLAREFGLSSDQMVGYWSRKWRKGGDDALKLKPKGRPKGSAKPKVLTEEDKLRRENERLRAENAYLKKLRDLKNQGHALEHHHHHH
- soluble on expression in E. coli: not soluble

Sequence: MGSDKIHHHHHHMDAFYASVEQRDNPELCGKPLAVGHAEERGVVAAASYEARRYGVHSAMSSQKAKRLCPELIFVPGRMNVYKAVSRQIHDIFHTYTDIIEPLSLDEAFLDVTENKAGFSLAIDIAKDIKKRIRKELGLIASAGVSYNKFLAKIASDYRKPDGLCTIHPDQALDFIAHLPIESFWGVGPVTAQKMHALGIHNGTQLQACTLEMLTRQFGKAGNLYYDFARGIDLRPVEPIRIRKSVGCEHTLEKDISLHSSAIIELYHVVTELLERLKRTNFSGNTLTLKIKFHDFNQITRSITQDSELTSMDKILPLAKKLLKEIDYESHPIRLIGLSVSNPKEEIKKQWEQLSLEFKEWDD
- soluble on expression in E. coli: not soluble

Sequence: MDDNNSEFKHLFPIAVEVTEGKTYVWCGCGKSKTQPFCDKENCGDKAVSFIAELTEDVYFCNCKQTKNPPFCDGSHAKILLEVVKKKAKQMNRKGSLKLEHHHHHH
- soluble on expression in E. coli: not soluble

Sequence: MKLVKLSLVAALAAGAFSAANATPLEEAIKDVDVSGVLRYRYDTGNFDKNFVNNSNLNNSKQDHKYRAQVNFSAAIADNFKAFVQFDYNAADGGYGANGIKNDQKGLFVRQLYLTYTNEDVATSVIAGKQQLNLIWTDNAIDGLVGTGVKVVNNSIDGLTLAAFAVDSFMAAEQGADLLEHSNISTTSNQAPFKVDSVGNLYGAAAVGSYDLAGGQFNPQLWLAYWDQVAFFYAVDAAYSTTIFDGINWTLEGAYLGNSLDSELDDKTHANGNLFALKGSIEVNGWDASLGGLYYGDKEKASTVVIEDQGNLGSLLAGEEIFYTTGSRLNGDTGRNIFGYVTGGYTFNETVRVGADFVYGGTKTEAANHLGGGKKLEAVARVDYKYSPKLNFSAFYSYVNLDQGVNTNESADHSTVRLQALYKF
- soluble on expression in E. coli: soluble

Sequence: MVADVNLKTGEVGTRIAEINSNSDKRYVQRIIDEPKFSLMANLALSDADKSSTVVHFKASVRKGEKNLTNCIRDGLQEHFGKKIVSLAGQFIIQTGKARLHVMPDFPGCPFENNAEVDKWLNYFEMSAPLICATVMHSYDPGHNLRLEHTHCYSDHGDAGHYHYDVTPETVSYEGWFAPASKIYRIDEIKNR
- soluble on expression in E. coli: not soluble

Sequence: MGRMSEKLGQDIKQSIFKVPPLIQKSDIDPEHCRVSAQLDDNVDDNIPLRVMLLLMDEVFDLKDRNQWLRRNIKNLLQQLIKATYGDTINRKIVDHVDNMTSPEQVSDYVKRFRDSYWPNGILAETPPRRDKNLRMRTRVAAKTTLLGIMPDELKHIIGADTTRKGILRVFEMFQHQPLNRRLVYVFLEGFLETLFPQYKFPELFEKLHSRSPRVLKYSHKLRSLQKR
- soluble on expression in E. coli: not soluble
